The text below walks through data of publication PMC5871780, “Klf4 glutamylation is required for cell reprogramming and early embryonic development in mice”.

One series deals with GST-Klf4-wt (Mus musculus, UniProt Q60793 1-483). Nature of the series: EMSA; unlabeled probe (1x or 100x) competes; LightShift Chemiluminescent EMSA Kit (Thermo Scientific), per manufacturer; buffer, salt, pH and temperature not stated. Particulars: protein: recombinant; tags: GST (N-term, pGEX-6P-1); blunt.
A further series has as its target GST-Klf4-E381A (Mus musculus, UniProt Q60793 1-483, E381A). Nature of the series: EMSA; affinity comparable to wt; LightShift Chemiluminescent EMSA Kit (Thermo Scientific), per manufacturer; buffer, salt, pH and temperature not stated. Particulars: protein: recombinant; tags: GST (N-term, pGEX-6P-1); blunt.

Sequence of GST-Klf4-wt (Q60793 whole entry): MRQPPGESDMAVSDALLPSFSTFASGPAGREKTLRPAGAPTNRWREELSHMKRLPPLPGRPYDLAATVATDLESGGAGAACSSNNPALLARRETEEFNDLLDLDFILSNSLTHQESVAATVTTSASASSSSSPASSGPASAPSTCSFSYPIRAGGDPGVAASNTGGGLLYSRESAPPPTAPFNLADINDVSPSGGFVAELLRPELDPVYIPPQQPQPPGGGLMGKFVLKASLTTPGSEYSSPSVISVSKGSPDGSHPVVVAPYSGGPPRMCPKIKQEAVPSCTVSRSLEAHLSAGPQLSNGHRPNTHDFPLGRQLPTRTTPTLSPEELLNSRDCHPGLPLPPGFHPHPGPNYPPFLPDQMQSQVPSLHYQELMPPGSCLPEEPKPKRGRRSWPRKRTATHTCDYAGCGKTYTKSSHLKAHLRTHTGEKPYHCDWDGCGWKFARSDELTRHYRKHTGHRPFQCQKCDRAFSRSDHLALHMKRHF
Sequence of GST-Klf4-E381A (Q60793 whole entry E381A): as the sequence (Q60793 whole entry) above, with E381A counted along it

B1: Nanog promoter probe (dsDNA)
DNA 1: GCCGCCTGGGTGCCTGGGAGAATAGGGGGTGGGTAGGGTAGGAGGCTTG
DNA 2: CAAGCCTCCTACCCTACCCACCCCCTATTCTCCCAGGCACCCAGGCGGC
As for B1, the binding result in the series with GST-Klf4-wt and in the series with GST-Klf4-E381A was “binds” in each case.
